Assay results: article PMC4222680

Columns and labels:
[1] = molecular target: TDG WT (human) (UniProt Q13569); assay: EMSA; conditions: tetrahydrofuran abasic analog (X, written N) at position 17 of strand 2, opposite A12 of strand 1; 20 mM HEPES pH 7.3, 1 mM EDTA, 10 mM (NH4)2SO4, 1 mM DTT, 0.2% Tween-20, 30 mM KCl; 2 nM DNA, 30 min at room temperature; 6% native PAGE at 4 C
[2] = molecular target: TDG G199S G199S (human (rs4135113 variant)) (UniProt Q13569); assay: EMSA; conditions: tetrahydrofuran abasic analog (X, written N) at position 17 of strand 2, opposite A12 of strand 1; 20 mM HEPES pH 7.3, 1 mM EDTA, 10 mM (NH4)2SO4, 1 mM DTT, 0.2% Tween-20, 30 mM KCl; 2 nM DNA, 30 min at room temperature; 6% native PAGE at 4 C
Chain of TDG G199S G199S (human (rs4135113 variant)) (Q13569 whole entry G199S): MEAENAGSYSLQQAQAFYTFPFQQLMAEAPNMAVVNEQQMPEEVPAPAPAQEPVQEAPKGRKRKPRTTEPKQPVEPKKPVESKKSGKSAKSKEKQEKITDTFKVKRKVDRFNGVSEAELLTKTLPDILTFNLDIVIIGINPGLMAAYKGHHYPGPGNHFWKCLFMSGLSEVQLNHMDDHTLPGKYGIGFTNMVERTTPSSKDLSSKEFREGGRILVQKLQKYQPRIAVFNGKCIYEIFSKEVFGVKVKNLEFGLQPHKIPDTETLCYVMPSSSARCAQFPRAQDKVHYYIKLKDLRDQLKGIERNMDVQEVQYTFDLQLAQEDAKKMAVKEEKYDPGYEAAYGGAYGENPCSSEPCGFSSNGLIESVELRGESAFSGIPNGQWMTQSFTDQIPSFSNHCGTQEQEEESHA

Chain of TDG WT (human) (Q13569 whole entry): as the sequence (Q13569 whole entry G199S) above, with S199G counted along it

For “CAGCTCTGTACATGAGCAGTGGTGACAC / GTGTCACCACTGCTCANGTACAGAGCTG [28-mer THF:A]”, the Kd [1] was 0.153 µM and the Kd [2] was 0.035 µM.
